Reference: article PMC3064778

B1: Cy5Bind15 (dsDNA)
DNA 1: CCGCCTCTTGGCCGATTCA
DNA 2: TCGGCCAAGAGGCGGTTTG
B2: Bind15 (dsDNA)
DNA 1: CCGCCTCTTGGCCGATTCA
DNA 2: TCGGCCAAGAGGCGGTTTG

Key:
[1] = target: AddANBN (Bacillus subtilis, UniProt P23478;P23477 1-1232;1-1166, D1172A;D961A); experiment: EMSA
[2] = target: AddAB (Bacillus subtilis, UniProt P23478;P23477 1-1232;1-1166); experiment: EMSA

| Binder | binding result [1] | binding result [2] |
| --- | --- | --- |
| B1 | binds | – |
| B2 | – | binds |
